From US20240043540A1 (Innovent, published 2024)

Legend:
[1] = target: T1, recombinant human 4Ig-B7H3 protein (human, UniProt Q5ZPR3 29-461); assay: bio-layer interferometry (ForteBio), hybridoma antibody
T1 construct: also called human B7H3 protein; SINO BIOLOGICAL Catalog No. 11188-H08H
T1 sequence: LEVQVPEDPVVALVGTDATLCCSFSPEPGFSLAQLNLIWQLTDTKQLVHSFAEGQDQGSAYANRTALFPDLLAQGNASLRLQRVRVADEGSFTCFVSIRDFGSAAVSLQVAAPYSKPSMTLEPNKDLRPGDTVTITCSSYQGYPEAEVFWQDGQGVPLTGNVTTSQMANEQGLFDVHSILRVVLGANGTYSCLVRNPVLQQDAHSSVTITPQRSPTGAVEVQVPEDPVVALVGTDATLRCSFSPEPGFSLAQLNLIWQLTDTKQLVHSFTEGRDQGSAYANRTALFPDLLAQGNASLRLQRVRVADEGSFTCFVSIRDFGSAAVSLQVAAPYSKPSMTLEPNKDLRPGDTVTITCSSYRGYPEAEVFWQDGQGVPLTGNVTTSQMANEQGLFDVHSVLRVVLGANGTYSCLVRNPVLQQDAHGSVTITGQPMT

[2] = target: T2, recombinant cynomolgus monkey B7H3 protein (cynomolgus monkey, UniProt Q7TPB4 26-248 (rat entry)); assay: as above
T2 construct: also called SINO BIOLOGICAL Catalog No. 90806-C02H-50
T2 chain: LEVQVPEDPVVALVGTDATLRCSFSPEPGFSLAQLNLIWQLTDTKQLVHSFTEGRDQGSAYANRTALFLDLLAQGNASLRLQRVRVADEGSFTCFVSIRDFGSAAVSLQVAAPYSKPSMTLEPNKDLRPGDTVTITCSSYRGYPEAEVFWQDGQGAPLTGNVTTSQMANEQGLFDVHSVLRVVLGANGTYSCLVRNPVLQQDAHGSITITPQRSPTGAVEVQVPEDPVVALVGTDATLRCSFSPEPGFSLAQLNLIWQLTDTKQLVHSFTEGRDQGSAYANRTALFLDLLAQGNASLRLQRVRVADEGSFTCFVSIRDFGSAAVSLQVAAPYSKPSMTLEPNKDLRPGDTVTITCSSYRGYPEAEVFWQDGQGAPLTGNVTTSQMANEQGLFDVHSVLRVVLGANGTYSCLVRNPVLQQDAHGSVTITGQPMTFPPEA

[3] = target: T3, cynomolgus monkey B7H3 expressed on CHO cells (CHO-cynoB7H3) (cynomolgus monkey, UniProt Q7TPB4 26-316 (rat entry)); assay: flow cytometry, hybridoma supernatant on CHO-cynoB7H3 cells
T3 chain: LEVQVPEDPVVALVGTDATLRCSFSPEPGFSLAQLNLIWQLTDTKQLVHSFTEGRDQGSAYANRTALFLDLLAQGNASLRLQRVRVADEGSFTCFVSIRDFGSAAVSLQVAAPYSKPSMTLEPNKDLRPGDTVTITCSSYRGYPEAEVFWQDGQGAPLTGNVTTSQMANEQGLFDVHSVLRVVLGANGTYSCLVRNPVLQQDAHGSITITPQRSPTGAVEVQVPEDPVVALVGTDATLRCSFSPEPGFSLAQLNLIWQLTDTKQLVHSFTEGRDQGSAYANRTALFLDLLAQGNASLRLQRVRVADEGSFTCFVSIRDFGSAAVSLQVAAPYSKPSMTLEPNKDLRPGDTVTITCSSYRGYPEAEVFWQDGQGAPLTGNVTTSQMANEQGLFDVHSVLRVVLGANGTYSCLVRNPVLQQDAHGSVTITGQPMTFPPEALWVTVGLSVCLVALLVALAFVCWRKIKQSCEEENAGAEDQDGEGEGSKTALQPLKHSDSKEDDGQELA

B1: 20G5 (hybridoma clone antibody) (antibody, V domains shown)
VH: EVQLQQSVPELVKPGASVKISCKTSGYTFTEYIMHWVKQSHGKNLEWIGGINPNNGGTTYNQKFKDKATLTVDKSSSTAYMELHNLTSEDSAVYYCTRRTPPWHFAVWGAGTSLTVSS
VL: DIVLTQSPTIMSASPGEKVTMTCSASSSVSYIHWYQQKSGTSPKRWIFDTSRLASGVPARFSGSGSGTSYSLTISSMEAEDAATYYCQQWSSAPLTFGTGTTLELK
For B1, the Kd [1] was 0.362 nM, the Kd [2] was 0.59 nM and the binding result [3] was “binds”.
